The test has as its system AMPKα. As to the kind of experiment: Time course immunoblot of p-AMPKα (Thr172)/total AMPKα in primary human TM cell lysates. Type of test: cell-based. On the procedure: Primary human trabecular meshwork (TM) cells were isolated, in accordance with the Declaration of Helsinki, and maintained in culture as described previously.^63 Independent primary human TM cell lines were generated from donors ranging in age from 35 to 72 years and no known history of ocular disease. Cell cultures were maintained, unless otherwise stated, in Dulbecco's modified eagle medium (Life Technologies, Grand Island, N.Y.) containing 20% fetal bovine serum, 1% L-glutamine (2 mM), and gentamicin (0.1 mg/ml) at 37° C. in a 10% CO2 atmosphere. Only TM cells from third through fifth passage were used. All experiments were performed using at least three different primary human TM cell lines.
At the conclusion of each experiment for matricellular and ECM protein detection, conditioned media (CM) from TM cell cultures was harvested and centrifuged at 5000 rpm for 10 minutes at 4° C. The supernatant was then concentrated (Amicon Ultra-4 Filter Unit, 10 kDa; Millipore, Milford, Mass.), and protein content quantified using the DC Protein Assay kit adhering to manufacturer's protocols (Bio-Rad, Hercules, Calif.). For AMPK protein detection, cells were lysed for 3 minutes on ice with cold 1×RIPA buffer containing 0.5% Aprotinin, 0.1% EDTA, 1% EGTA, 0.5% PMSF, and 0.01% Leupeptin. Samples were then centrifuged at 14,000 rpm for 15 minutes at 4° C. and protein content quantified. In all experiments, equal amounts of protein were treated with 6× reducing buffer and boiled for 5 minutes. Samples were then electrophoresed in 10% SDS-polyacrylamide gels, alongside a pre-stained protein marker (Cell Signaling Technology Inc., Danvers, Ma). For conditioned media loading control, the resultant gels were stained with 0.1% Coomassie Brilliant Blue G-250 (Bio-Rad, Hercules Calif.) for 3 hours and were destained with fixing/destaining solution until clear bands were visible and contrasted well with the true blue background. Otherwise, proteins were transferred to nitrocellulose membranes (0.45-μm pore size; Invitrogen). […] The membranes were then washed three times with 1×TBS-T, scanned, and integrated band intensities were calculated using an infrared imaging system (Odyssey; Li-Cor, Lincoln, Nebr.). […]
Background: In western blotting, separated proteins are transferred to a membrane and probed.

B1: TGF-β2: activated transforming growth factor-β2 (R&D Systems) used to stimulate TM cells (protein, UniProt P61812 303-414, looked up)
Transforming growth factor …: ALDAAYCFRNVQDNCCLRPLYIDFKRDLGWKWIHEPKGYNANFCAGACPYLWSSDTQHSRVLSLYNTINPEASASPCCVSQDLEPLTILYYIGKTPKIEQLSNMIVKSCKCS
For B1, the “phospho-total AMPK ratio difference vs zero time point” value (2.5 ng/mL TGF-β2, at 30 minutes) is reported as “no longer significant”. For the same molecule, under “2.5 ng/mL TGF-β2, within 15 minutes, human TM cells”, the “decrease of phospho-total AMPK ratio, normalized to the zero time point” value is given as 30%.

Values taken from patent US20170020909A1, “METHODS OF TREATING GLAUCOMA USING AMP-ACTIVATED PROTEIN KINASE (AMPK) ACTIVATORS” (Massachusetts Eye and Ear Infirmary, priority 2014, published 2017).
